According to publication PMC5437272, “ISCA1 is essential for mitochondrial Fe4S4 biogenesis in vivo” (Nature Communications, 2017):
Where “and” joins values, the source holds several entries; their conditions need not be identical. Equal values may be shown once.

Target: the molecule itself
Test: SEC; analytical Superdex-75, 0.5 ml min^-1, buffer E (100 mM Tris-HCl pH 7.5, 100 mM NaCl, 5 mM DTT), calibrated with molecular weight standards; oligomerization state of the ISCA proteins

Protein | stoichiometry N
His-ISCA2 (mouse recombinant ISCA2, mature form) (natural protein, UniProt Q9DCB8 38-154, looked up, ISCA2, mouse, mature form cloned into pET-11a; theoretical mass of the His-tagged monomer 13,554 Da; As purified it holds a Fe2S2 cluster; also called Fe2S2-ISCA2; source: E. coli BL21(DE3)/pET-ISCA2, purified under anaerobic condition (Ni-NTA); not shown: His tag, N-terminal, kept) TTSSIPEAGEGQIRLTDSCVQRLLEITEGSEFLRLQVEGGGCSGFQYKFSLDTVINPDDRVFEQGGARVVVDSDSLAFVKGAQVDFSQELIRSSFQVLNNPQAQQGCSCGSSFSVKV | 2
His-ISCA1 (mouse recombinant ISCA1, mature form) (natural protein, UniProt Q9D924 13-129, looked up, ISCA1, mouse, mature form cloned into pET-11a; theoretical mass of the His-tagged monomer 13,898.8 Da; As purified it holds a Fe2S2 cluster; By gel filtration a mixture of dimer (main) and tetramer (minor); also called Fe2S2-ISCA1; source: E. coli BL21(DE3)/pET-ISCA1, purified aerobically (Ni-NTA); not shown: His tag, N-terminal, kept) VSKRKLQPTRAALTLTPSAVNKIKQLLKDKPEHVGLKVGVRTRGCNGLSYSLEYTKTKGDSDEEVIQDGVRVFIEKKAQLTLLGTEMDYVEDKLSSEFVFNNPNIKGTCGCGESFHV | 2 and 4
